Measurements reported in US20150297748A1 (Daiichi Sankyo, published 2015).

Columns and labels:
human B7-H3 variant 1 = target: T1, human B7-H3 variant 1 (human, UniProt Q5ZPR3 27-534); test: cell-based or functional assay
T1 sequence: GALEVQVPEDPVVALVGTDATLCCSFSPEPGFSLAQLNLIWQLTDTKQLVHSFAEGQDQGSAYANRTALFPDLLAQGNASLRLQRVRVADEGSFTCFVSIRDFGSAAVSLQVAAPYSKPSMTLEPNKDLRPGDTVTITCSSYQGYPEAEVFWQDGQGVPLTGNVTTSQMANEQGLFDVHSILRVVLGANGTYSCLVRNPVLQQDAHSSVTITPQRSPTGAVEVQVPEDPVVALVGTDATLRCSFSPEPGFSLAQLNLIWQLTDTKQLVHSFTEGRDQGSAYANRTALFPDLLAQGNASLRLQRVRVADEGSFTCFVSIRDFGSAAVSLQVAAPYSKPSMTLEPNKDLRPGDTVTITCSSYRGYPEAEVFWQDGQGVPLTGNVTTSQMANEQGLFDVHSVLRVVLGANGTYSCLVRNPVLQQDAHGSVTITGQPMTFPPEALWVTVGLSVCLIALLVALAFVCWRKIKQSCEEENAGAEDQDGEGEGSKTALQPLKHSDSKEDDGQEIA

CD30 = target: T2, CD30 (UniProt P28908 19-595, limits assumed); test: cell-based or functional assay
T2 sequence (looked up): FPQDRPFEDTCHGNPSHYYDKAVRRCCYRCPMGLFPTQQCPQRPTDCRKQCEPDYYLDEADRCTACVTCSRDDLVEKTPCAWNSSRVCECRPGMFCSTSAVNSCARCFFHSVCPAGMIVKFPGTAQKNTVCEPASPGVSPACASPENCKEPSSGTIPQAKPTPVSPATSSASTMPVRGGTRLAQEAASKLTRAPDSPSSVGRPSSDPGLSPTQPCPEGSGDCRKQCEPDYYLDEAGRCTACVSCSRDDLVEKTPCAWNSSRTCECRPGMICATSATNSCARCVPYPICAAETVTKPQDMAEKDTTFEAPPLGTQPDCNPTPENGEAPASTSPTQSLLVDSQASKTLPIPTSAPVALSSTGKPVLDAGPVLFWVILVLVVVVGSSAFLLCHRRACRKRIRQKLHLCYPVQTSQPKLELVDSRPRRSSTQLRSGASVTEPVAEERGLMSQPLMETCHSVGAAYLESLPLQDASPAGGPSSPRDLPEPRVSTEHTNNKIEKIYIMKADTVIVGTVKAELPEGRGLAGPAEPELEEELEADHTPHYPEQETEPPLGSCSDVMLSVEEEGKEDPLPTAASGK

B1: Antibody-drug conjugate (46) (antibody, human IgG1, kappa, V domains shown)
VH: QVQLVQSGAEVKKPGSSVKVSCKASGYTFTNYVMHWVRQAPGQGLEWMGYINPYNDDVKYNEKFKGRVTITADESTSTAYMELSSLRSEDTAVYYCARWGYYGSPLYYFDYWGQGTLVTVSS
VL: EIVLTQSPATLSLSPGERATLSCRASSRLIYMHWYQQKPGQAPRPLIYATSNLASGIPARFSGSGSGTDFTLTISSLEPEDFAVYYCQQWNSNPPTFGQGTKVEIKR
modifications: drug-linker 6-maleimidohexanoyl-GGFG-NH-CH2CH2-O-CH2-C(=O)-exatecan (compound of Process 3 of Example 43) on cysteines of the reduced hinge disulfide bonds; average 5.2 per antibody molecule; positions not given
- IC50, cytotoxic activity against the CEM_V1-3.1-2 cells (human B7-H3 variant 1): < 0.1 nM

B2: Antibody-drug conjugate (45) (antibody, human IgG1, kappa, V domains shown)
VH: QVQLVQSGAEVKKPGSSVKVSCKASGYTFTNYVMHWVRQAPGQGLEWMGYINPYNDDVKYNEKFKGRVTITADESTSTAYMELSSLRSEDTAVYYCARWGYYGSPLYYFDYWGQGTLVTVSS
VL: EIVLTQSPATLSLSPGERATLSCRASSRLIYMHWYQQKPGQAPRPLIYATSNLASGIPARFSGSGSGTDFTLTISSLEPEDFAVYYCQQWNSNPPTFGQGTKVEIKR
modifications: drug-linker 6-maleimidohexanoyl-GGFG-NH-CH2CH2-O-CH2-C(=O)-exatecan (compound of Process 3 of Example 43) on cysteines of the reduced hinge disulfide bonds; average 3.7 per antibody molecule; positions not given
- IC50, cytotoxic activity against the CEM_V1-3.1-2 cells (human B7-H3 variant 1): < 0.1 nM

B3: Antibody-drug conjugate (6) (antibody, human IgG1, kappa, V domains shown)
VH: QIQLQQSGPEVVKPGASVKISCKASGYTFTDYYITWVKQKPGQGLEWIGWIYPGSGNTKYNEKFKGKATLTVDTSSSTAFMQLSSLTSEDTAVYFCANYGNYWFAYWGQGTQVTVSA
VL: DIVLTQSPASLAVSLGQRATISCKASQSVDFDGDSYMNWYQQKPGQPPKVLIYAASNLESGIPARFSGSGSGTDFTLNIHPVEEEDAATYYCQQSNQDPWTFGGGTKLEIKR
modifications: drug-linker 6-maleimidohexanoyl-GGFG-NH-(CH2)3-C(=O)-exatecan (compound of Process 3 of Example 2) on cysteines of the reduced hinge disulfide bonds; average 3.3 per antibody molecule; positions not given
- IC50, cytotoxic activity against the SR cells (CD30): < 0.01 nM

B4: Antibody-drug conjugate (64) (antibody, V domains shown)
VH: QIQLQQSGPEVVKPGASVKISCKASGYTFTDYYITWVKQKPGQGLEWIGWIYPGSGNTKYNEKFKGKATLTVDTSSSTAFMQLSSLTSEDTAVYFCANYGNYWFAYWGQGTQVTVSA
VL: DIVLTQSPASLAVSLGQRATISCKASQSVDFDGDSYMNWYQQKPGQPPKVLIYAASNLESGIPARFSGSGSGTDFTLNIHPVEEEDAATYYCQQSNQDPWTFGGGTKLEIKR
modifications: drug-linker 6-maleimidohexanoyl-GGFG-NH-CH2-O-CH2-C(=O)-exatecan (compound of Process 8 of Example 58) on cysteines of the reduced hinge disulfide bonds; average 3.7 per antibody molecule; positions not given
- IC50, cytotoxic activity against the SR cells (CD30): < 0.01 nM

B5: Antibody-drug conjugate (65) (antibody, V domains shown)
VH: QIQLQQSGPEVVKPGASVKISCKASGYTFTDYYITWVKQKPGQGLEWIGWIYPGSGNTKYNEKFKGKATLTVDTSSSTAFMQLSSLTSEDTAVYFCANYGNYWFAYWGQGTQVTVSA
VL: DIVLTQSPASLAVSLGQRATISCKASQSVDFDGDSYMNWYQQKPGQPPKVLIYAASNLESGIPARFSGSGSGTDFTLNIHPVEEEDAATYYCQQSNQDPWTFGGGTKLEIKR
modifications: drug-linker 6-maleimidohexanoyl-GGFG-NH-CH2-O-CH2-C(=O)-exatecan (compound of Process 8 of Example 58) on cysteines of the reduced hinge disulfide bonds; average 6.8 per antibody molecule; positions not given
- IC50, cytotoxic activity against the SR cells (CD30): < 0.01 nM

B6: Antibody-drug conjugate (23) (antibody, V domains shown)
VH: QIQLQQSGPEVVKPGASVKISCKASGYTFTDYYITWVKQKPGQGLEWIGWIYPGSGNTKYNEKFKGKATLTVDTSSSTAFMQLSSLTSEDTAVYFCANYGNYWFAYWGQGTQVTVSA
VL: DIVLTQSPASLAVSLGQRATISCKASQSVDFDGDSYMNWYQQKPGQPPKVLIYAASNLESGIPARFSGSGSGTDFTLNIHPVEEEDAATYYCQQSNQDPWTFGGGTKLEIKR
modifications: drug-linker 3-maleimidopropanoyl-NH-(CH2CH2O)2-CH2CH2-C(=O)-GGFG-NH-(CH2)3-C(=O)-exatecan (compound of Process 1 of Example 14) on cysteines of the reduced hinge disulfide bonds; average 7.1 per antibody molecule; positions not given
- IC50, cytotoxic activity against the SR cells (CD30): < 0.01 nM

B7: Antibody-drug conjugate (38) (antibody, V domains shown)
VH: QIQLQQSGPEVVKPGASVKISCKASGYTFTDYYITWVKQKPGQGLEWIGWIYPGSGNTKYNEKFKGKATLTVDTSSSTAFMQLSSLTSEDTAVYFCANYGNYWFAYWGQGTQVTVSA
VL: DIVLTQSPASLAVSLGQRATISCKASQSVDFDGDSYMNWYQQKPGQPPKVLIYAASNLESGIPARFSGSGSGTDFTLNIHPVEEEDAATYYCQQSNQDPWTFGGGTKLEIKR
modifications: drug-linker from the N-succinimidyl ester of suberoyl-GGFG-NH-(CH2)3-C(=O)-exatecan (compound of Process 1 of Example 37); average 2.7 per antibody molecule; chain and positions not stated
- IC50, cytotoxic activity against the SR cells (CD30): < 0.01 nM

B8: Antibody-drug conjugate (7) (antibody, V domains shown)
VH: QIQLQQSGPEVVKPGASVKISCKASGYTFTDYYITWVKQKPGQGLEWIGWIYPGSGNTKYNEKFKGKATLTVDTSSSTAFMQLSSLTSEDTAVYFCANYGNYWFAYWGQGTQVTVSA
VL: DIVLTQSPASLAVSLGQRATISCKASQSVDFDGDSYMNWYQQKPGQPPKVLIYAASNLESGIPARFSGSGSGTDFTLNIHPVEEEDAATYYCQQSNQDPWTFGGGTKLEIKR
modifications: drug-linker 6-maleimidohexanoyl-GGFG-NH-(CH2)3-C(=O)-exatecan (compound of Process 3 of Example 2) on cysteines of the reduced hinge disulfide bonds; average 3.8 per antibody molecule; positions not given
- IC50, cytotoxic activity against the SR cells (CD30): < 0.01 nM

B9: Antibody-drug conjugate (22) (antibody, V domains shown)
VH: QIQLQQSGPEVVKPGASVKISCKASGYTFTDYYITWVKQKPGQGLEWIGWIYPGSGNTKYNEKFKGKATLTVDTSSSTAFMQLSSLTSEDTAVYFCANYGNYWFAYWGQGTQVTVSA
VL: DIVLTQSPASLAVSLGQRATISCKASQSVDFDGDSYMNWYQQKPGQPPKVLIYAASNLESGIPARFSGSGSGTDFTLNIHPVEEEDAATYYCQQSNQDPWTFGGGTKLEIKR
modifications: drug-linker 3-maleimidopropanoyl-NH-(CH2CH2O)2-CH2CH2-C(=O)-GGFG-NH-(CH2)3-C(=O)-exatecan (compound of Process 1 of Example 14) on cysteines of the reduced hinge disulfide bonds; average 2.5 per antibody molecule; positions not given
- IC50, cytotoxic activity against the SR cells (CD30): < 0.1 nM
